Experimental data taken from the nanobody polyreactivity screen of Harvey et al. (2022).

Experiment: yeast display, Sf9 membrane polyspecificity reagent, FACS + sequencing; frameworks hold sequencing errors
Method in brief: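 In a synthetic yeast display library (Saccharomyces cerevisiae BJ5465), nanobody expression was induced with galactose for 36–48 hours. FACS gates were set low and high (top ~1%) using anti-HA fluorescence for expression and streptavidin fluorescence for binding of the Sf9 membrane reagent. Each polyreactivity label is drawn from the gate of origin.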

Row | Sequence | polyreactivity (PSR sort gate)
1 | QVQLVESGGGLVQAGGSLRLSCAASGIIFDTYAMGWYRQAPGKERELVAAISRSGDTTYYADSVKGRFTISRDNAKNTVFLQMNSLKPEDTAVYYCNARQSRWDKYDYWGQGTQVTVSS | high polyreactivity
2 | QVQLVESGGGLVQAGGSLRLSCAASGSIFGYNVMGWYRQAPGKERELVAAINYSGGRTYYADSVKGRFTISRDNAKNTVYLEMNSLKPEDTAVYYCAAVPLSRYTVFNYDYWGQGTQVTVSS | high polyreactivity
3 | QVQLVESGGGLVQAGGSLRLICAASGSTFNGNDRGWYRQAPGKERELVATISDGGRTYYADSVKGRFTISRDNAKITVYLQMNSLKPEDTAVYYCAAPVYVPRAWFYYWGQGTQVTVSS | low polyreactivity
4 | QVQLVESGGGLVQAGGSLRLSCAASGFTFRYYAMGWYRQAPGKERELLAAISWSGGSTYYADSVKGRFTISRDNAKNTVYLQMNSLNPEDTAVYYCAADSVFGGRGRYQASRYYYWGQGPQVTVSS | high polyreactivity
5 | QVQLVESGGGLVQAGGSLRLSCAASGRTFYSNAMGWYRQAPGKERELVASISYGGGTTHYADSVKGRFTISRDNAKNTVYLQINSVKPEDTAVYYCAADPEHQWESVTIGEYDYWGQGTQVTVSS | low polyreactivity
6 | QVQLVESGGGLVQAGGSLRLSCPASGITFGTNAMGWYIQAPGKERELVAAISKRGSSTYYADSVKGRFTISRDNAKNTVYLQMNSLKPEDTAVYYCNVVDERTRNLSKFYYWGQGTQVTVSS | high polyreactivity
7 | QVLLVESGGGLVQAGGSLRVSCAASGSTFPYYAMGWYRQAPGKERELVAAITSSASTYYADSVKGRFTISRDNAKNTVYLQMNSLKPEDTAVYYCAVRTPYRLSRWRVGYWGQGTQVTVSS | high polyreactivity
8 | QVQLVESGGGLVQAGGSLRLSCAASGRTFSYYAMGWYRQAPGKERELVAAISSGDSTYYADSVKGRFTFSRDNAMNTVYLQMNSLKPEDTAVYYCASYPSLYYTKYDYWGQGTQVTVSS | high polyreactivity
9 | QVQLVESGGGLVQAGGSLRLSCAASGSTFSIYAMGWYRQAPGKERELVAAISSDSTYYADSVKGRFTISRDNAKNTVYLQMNSLKPEDTAVYYCAADPYFPKYYYWGQGTQVTVSS | low polyreactivity
10 | QVQLEESGGGLVQAGGSLRLSCAASGITSPAYAMGWYRQAPGKEREFVAAISSSGGSTYYADSVKGRFTISRDNAKNTVYLQMNSLKPEDTAVYYCAVRGRISSVSRYGYWGQGTQVTVSS | high polyreactivity
11 | QVQLVESGGGLVQAGGSLRISCAASGGTFTKNAMGWYRQAPGKERELLAAISWRGTSTYYADSVKGRFTISRDNAKNTVYLQMNSLKPEDTAVYYCNTDRYFRRYYWYDYWGQGTQVTVSS | high polyreactivity
12 | QVQLVESGGGLVQAGGSLRLSCAASGRTFYYNTMGWYRQAPGKERELVAAISWRTGSTYYADSVKGRFTISRDNAKNTVYLQMNSLKPEDTAVYYCAAVLFGYPRTIGTWYDRYYYWGQGTQVTVSS | high polyreactivity
13 | QVQLVESGGGLVQAGGSLRLSCAASGSIFPYYAMGWYRPAPGTERELVAAISRGGGTTYYADSVKGRFTISRDNAKNTVYLQMNSLKPEDTAVYYCAARQWRISTPYDYWGQGTQVTVSS | high polyreactivity
14 | QVQLVETGGRLVQAGGSLRVSCAASGITFECYAMGWSRQATGKERELVAAIRSSGTSTYYADSVKGRFTISRDNAKNTVYLQMMSLKPEDTAVYYCNLARSSSRYDYWGQGTQVTVSS | low polyreactivity
15 | QVQLVESGGGLVQAGGSLRLSCAASGRIFHYNAMGWYRQAPGKERELVAAITRRGTSTYYADSVKGRFTISRDNAKNTVYLQMNSLKPEDTAVYYCATDYGFKDSVVDFDYWGQGTQVTVSS | low polyreactivity
16 | QVQLVESGGGLVQAGGSLRLSFAASGSTFVYNAMGWYRPAPGKERELVAAITVIGGRTYYADSVKGRFTISRDNAKNTVYLQMNSLKPEDTAVYYCNADATESIGYYDEYEYWGQGTQVTVSS | low polyreactivity
17 | QVQLVESGGGLVQAGGSLRLTCAASGRTFRANAMGWYRQATGKERELVAAISQRGGNTYYADSVKGRFTSSRDNAKNTVYFQMNSLKPEDTAVYYCAADITTYRRGRYEYEYWGQGTQVTVSS | high polyreactivity
18 | QVQLVESGGGLVQAGGSLRLSCAASGRNFSFYAMGWYRQAPGQERELVAAITYTDGSTYADSVKGRFTISRDNAKNTVYLQMNSLKPDDTAVYYFATRYRWTPYDYWGQGTQVTVSS | low polyreactivity
19 | QVQLVESGGGLVQAGGSLRLSCAASGIIISYYTMGWYRQAPGKERELVAAITGSGGSTYYADSVKGRFTISRDNAKNTVYLQMNSLKPEDTAVYYCAADPSLRQYAYFDYYYWGQGTQVTVSS | low polyreactivity
20 | QVQLVESGGGLVHAGGSLRLSCAAYGIIFQYYTMGWYRQAPGKERELVASITYDGDSTYYADSVKGRFTISLDNAKNTVYLQMNSLKPEDTALYYCAAVANGFWTYEYWGQGTQVTVSS | low polyreactivity
21 | QVQLVESGGGLFQAGGSLRLSCADSGSTFSLYAMGWDRQAPGKDRELVAAITWSGGSTYYADSEKGRFTISRDNAKTTVYLQMTSLPPEDTAVYYCAAHRIGYYLRVSYRGKYDHWGQGTQVTVSS | low polyreactivity
22 | QVQLVESGGGLVQAGGSHRLSCAASGRIFSTYAMGWYRQAPGKERELVAAINKIGGSTYYADSVKGRFTISRDNAKNNVYLQMNSLKPEDTAVDYCAADAPHYPVRRYYYWGQGTQVTVSS | low polyreactivity

Row | Sequence | polyreactivity (PSR sort gate)
23 | QVQLVESGGGLVQAGGSLRLSCAASGRIFVKYAMGWYRQEPGKERELVAAIRWSVGSTYYADSVKGRFTISRDNAKNTVYLLMNSLKPEDTAVYYCAAQPVRKLYWGQGTQVTVSS | high polyreactivity
24 | QVQLVESGVGLVQAGGSLRLSCAASGSTFTANAMGLYRQAPGKERELVAAISSTGGSTYYADSVKGRFTISRDNEKNTVYLQMNSLKPEDTAVYYCNKDGPYQVITYDYWGQGTKVTVSS | high polyreactivity
25 | QVQLVESGGGLVQAGCSLRLSCAASGSTFRWYAMGWYRPAPGKEREFVAAITSSGGSTYYADSVKGRFTISRDNAKNTVYLQMNSLKPEDTAVYYCNRRYQPYSYDYWGQGTQVTVSS | high polyreactivity
26 | QVQLVESGGGLVQAGGSLSLSCAASGRIFYGYVMVWYRQAPGKERELVAAITWSGSRTYYADSVKGRFTISRDNAKNTVFLQMNSLKPADTAVYYCAARIPSDGYYYWGQGTQVTVSS | high polyreactivity
27 | QVQLVESGGGLVQAGGSLRLSCAASGFTFRYYAMGWYRQAPGKERELVATIRTSGGSTYYADSVKGRFTISRDNAKNTVYLQMNSLKPEDTAVYYCAVRGRNWQHTRFNYWGQGTQVTVSS | high polyreactivity
28 | QVQLVESGGGLVQAGGTLRLSCAASGRTFYGNAMGWYRQAPGKERELVAVITRRGDTTYYADSVKGRFTISRDNAKNTVYLQMNSLKPEDTAVYYCAASYTGGYTPRQKYNRMGYWGQGTQVSVSS | high polyreactivity
29 | QVQLVESGGGLVQAGGSLRLSCAASGRIFYWNAMGWYRQAPGKERELVAVITKSGGSTYYADSVKGRFTISRDNAKNTVYLQMNSLKPEDTAVYYCAKSLYVQGYYIYDWGQGTQVTVSS | high polyreactivity
30 | QFQLVESGGGLVQAGGSLRLSCAASGRTFWYYDMGWYRQAPGKERELFATITSGGSTNYADSVKGRFTISRDNAKNTVYLQMNSLKPEDTAVYYCAAARWRWQLARDDYWGQGTQVTLSS | high polyreactivity
31 | QVQLVESGGGLVQAGGSLRLSCAASGFIFYYDAMGWYIQAPGKERELVARIYSGRSTYYADSVKGRFTISRDNAKNTVYLQMNSLKPEDTAVYYCNATRLVWFSQGYDYWGQGTQVTVSS | high polyreactivity
32 | QVQLVESGGCLVQAGGSLRLSCAASGSTSDIYARGWYSPAPGKEREFVAARSLTGGTTYYAASVKGRFTISCDNAKNTVYLQMNSLKPEDTAVYYCNADVGWWGYDDDYWGQGTQVTVSS | high polyreactivity
33 | QVQLVESGGGLVQAGGSLRLSCAASGSIFWYNAKGWYRQAPGKERELVAAINWGGGSTYYADSVKGRFTISRDNAKNTVYLEMNSLTPEDTAVYYCNADQQVDHATVSQRDGYDYWGQGTQVTVSS | low polyreactivity
34 | QVQLVESGGGLVQAGGSLRLSCAASGRIFGRYAMGWYRQATGKERELVAAITSGGRTSYADSVKGRFTISRDNAKNTVYLQMNSLKPEDTAVYYCNVVSRNSIRFDYWGQGTQVTVSS | high polyreactivity
35 | QVQLVESGGGLVQAGGSLRLSCAASGSTFAVNAMGWYRQAPGKEREFVASIRGSGGRTSYADSVKGRFTISRDNAKNTVYLQMNCLKPEDTAVYYCAARYVGGTWRSGRYPRSDYWGQGTQVTVSS | high polyreactivity
36 | QVQLVESGGGLVQAGGSLRFTCAASGRIFLGYAMGWYRQAAGKEREFVAAINSVASTNYADSVKGRFTISRDNAKNTVYLQMNSLKPEDTAVYYCAAVYFLVQSDLPAYDYWGQGTQVTVSS | low polyreactivity
37 | QVQLVESGGGLVQAGGSLRLSCAASGFTFRLYAMGWYRQAPGKERELVATITRRGGITTYADSVKGRFTISRDNAKNTVYLQMNSLKPEDTAVYYCNAGKYVYATSQYDYWGQGTQVTVSS | high polyreactivity
38 | QVQLVESGGGLVQAGGSLRLSCAASGNTFGPYAMGWYRQAPGKERELVAAITWTDTSTHYADSVKGRFTISRDNAKNTVYLQMNSLKPEDTAVYYCARVYYVNTYRYRAGYYYWGQRTQVTVSS | high polyreactivity
39 | QVQLVESGGGLVQAGGSLRLSCAASGFTFTYYAMGWYRQAPGKERELVAAISWRGTSTFYADSVKGRFTISRDNAKNTVYLQMNSLKPEDTAVYYCATEKWVGYKYWSSRKYDYWGQGTQVTVSS | high polyreactivity
40 | QVQLQESGGGLVQAGGSLRLSCAASGSIFKVVDMGLYRQAPGKEREFVATNGEGGNTYSADSVKGRFTISRDNAKNTVYRQMNSLKPEATAVYFYAVVLGTSYRYTYWGQGTQVTVSS | low polyreactivity
41 | QVQLVESGGGLVQAGGSLRLSCAASGNTFTAYAMGWYRQAPGKERELVAAISSSGRTNYADSVKGRFTISRDNAKNTVYLQMNSLKPEDTAVYYCAAYRLSKPFYKYDYWGEGTQVTVSS | high polyreactivity
42 | QVQLVESGGGLVQAGGSLRLSCAASGTTIGVNAMGWYRQAPGKERDLVAAISRRGASTYYADSVKGRFTISLDNAKNTVYLQMNSLKPEETAVYYCAKAQVHDYIVSMDRYGYWGQGTQVTVSS | low polyreactivity
43 | QVQLVESGGGLVQAGGSLRLSCAASGITFKWYAMGWYRQAPGKERELVAAISWSTGSTYYADSVKGRFTISRDNAKNTVYLPMNSLKPEDTAVYYCAARVKRPQTGYDRRYGYWGQGTQVTVSS | high polyreactivity
